B1: huMOV19-sSPDB-Compound A (antibody)
heavy: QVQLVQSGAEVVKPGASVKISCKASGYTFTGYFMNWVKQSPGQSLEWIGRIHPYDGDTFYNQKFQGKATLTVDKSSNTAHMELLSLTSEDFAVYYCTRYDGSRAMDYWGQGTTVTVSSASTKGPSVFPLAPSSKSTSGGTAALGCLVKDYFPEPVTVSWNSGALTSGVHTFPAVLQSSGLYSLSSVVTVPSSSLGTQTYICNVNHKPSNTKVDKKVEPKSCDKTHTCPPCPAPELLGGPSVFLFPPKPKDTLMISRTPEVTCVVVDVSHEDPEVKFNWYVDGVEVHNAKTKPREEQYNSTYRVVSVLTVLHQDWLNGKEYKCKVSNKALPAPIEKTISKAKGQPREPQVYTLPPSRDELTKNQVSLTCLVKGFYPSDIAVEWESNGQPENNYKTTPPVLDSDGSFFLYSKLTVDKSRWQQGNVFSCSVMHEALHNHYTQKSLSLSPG
light: DIVLTQSPLSLAVSLGQPAIISCKASQSVSFAGTSLMHWYHQKPGQQPRLLIYRASNLEAGVPDRFSGSGSKTDFTLTISPVEAEDAATYYCQQSREYPYTFGGGTKLEIKRTVAAPSVFIFPPSDEQLKSGTASVVCLLNNFYPREAKVQWKVDNALQSGNSQESVTEQDSKDSTYSLSSTLTLSKADYEKHKVYACEVTHQGLSSPVTKSFNRGEC
modifications: Compound A linked through a sulfo-SPDB linker to amino groups of lysine residues, positions not given; Compound A linked through a sulfo-SPDB linker to amino groups of lysine residues, positions not given; average 2.4 Compound A per antibody
B2: huMOV19-NTS #2 (antibody)
heavy: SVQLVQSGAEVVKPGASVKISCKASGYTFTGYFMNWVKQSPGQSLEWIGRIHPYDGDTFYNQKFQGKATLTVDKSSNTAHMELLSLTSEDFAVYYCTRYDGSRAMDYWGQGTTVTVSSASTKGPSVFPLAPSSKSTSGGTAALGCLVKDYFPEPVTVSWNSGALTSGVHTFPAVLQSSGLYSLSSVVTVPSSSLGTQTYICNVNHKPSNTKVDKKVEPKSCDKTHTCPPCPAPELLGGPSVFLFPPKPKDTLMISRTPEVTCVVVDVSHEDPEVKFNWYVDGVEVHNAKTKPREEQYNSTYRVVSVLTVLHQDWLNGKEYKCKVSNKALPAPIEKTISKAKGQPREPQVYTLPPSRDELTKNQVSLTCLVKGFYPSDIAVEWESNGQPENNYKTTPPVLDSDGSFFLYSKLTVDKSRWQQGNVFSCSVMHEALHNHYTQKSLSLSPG
light: B1 light
B3: huMOV19-NTS #2-Linker1-Compound A (antibody)
heavy: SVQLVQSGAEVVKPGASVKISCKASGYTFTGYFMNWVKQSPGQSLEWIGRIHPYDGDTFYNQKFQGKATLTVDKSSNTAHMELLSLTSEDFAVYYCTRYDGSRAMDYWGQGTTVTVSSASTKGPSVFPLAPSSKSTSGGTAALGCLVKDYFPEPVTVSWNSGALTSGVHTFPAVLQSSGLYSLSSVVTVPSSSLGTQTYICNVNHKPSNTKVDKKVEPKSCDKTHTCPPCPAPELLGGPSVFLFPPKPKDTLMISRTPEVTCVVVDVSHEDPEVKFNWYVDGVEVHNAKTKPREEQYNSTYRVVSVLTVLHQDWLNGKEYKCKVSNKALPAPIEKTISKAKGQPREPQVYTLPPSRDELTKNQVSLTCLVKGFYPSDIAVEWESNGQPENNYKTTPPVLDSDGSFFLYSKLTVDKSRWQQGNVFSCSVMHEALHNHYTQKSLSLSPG
light: B1 light
modifications: N-terminal Ser oxidized to an aldehyde and linked through Linker1 to Compound A (sulfonated DGN462); two Compound A molecules per antibody
B4: huMOV19 (antibody)
heavy: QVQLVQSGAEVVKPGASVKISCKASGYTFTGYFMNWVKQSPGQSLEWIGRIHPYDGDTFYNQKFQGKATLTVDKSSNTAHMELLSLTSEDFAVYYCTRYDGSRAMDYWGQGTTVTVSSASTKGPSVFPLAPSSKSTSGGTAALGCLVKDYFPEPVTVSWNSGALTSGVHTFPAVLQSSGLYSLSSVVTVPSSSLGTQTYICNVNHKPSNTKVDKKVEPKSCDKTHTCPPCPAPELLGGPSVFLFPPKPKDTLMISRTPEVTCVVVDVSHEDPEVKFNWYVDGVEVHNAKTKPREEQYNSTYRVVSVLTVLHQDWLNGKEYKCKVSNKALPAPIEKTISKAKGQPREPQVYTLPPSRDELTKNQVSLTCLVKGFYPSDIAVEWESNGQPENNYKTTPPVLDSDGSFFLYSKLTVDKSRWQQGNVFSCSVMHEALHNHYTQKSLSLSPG
light: B1 light

In the assay the target is folate receptor alpha (FR-α) (human, UniProt P15328 25-234). Briefly: FACS binding on T47D cells.
Sequence of folate receptor alpha (FR-α) (P15328 25-234): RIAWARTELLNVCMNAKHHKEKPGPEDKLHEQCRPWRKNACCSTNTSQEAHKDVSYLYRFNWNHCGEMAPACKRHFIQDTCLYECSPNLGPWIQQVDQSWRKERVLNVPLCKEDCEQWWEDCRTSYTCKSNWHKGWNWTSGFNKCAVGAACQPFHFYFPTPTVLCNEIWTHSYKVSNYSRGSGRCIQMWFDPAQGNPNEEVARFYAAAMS
One may read the EC50 as the concentration at which the effect is half-maximal. A high value points to a need for much substance. The molecule B1 showed a concentration giving a half-maximal response (EC50) of 0.426 nM.

In turn, B2 returned an EC50 of 0.243 nM.

B3 yielded an EC50 of 0.881 nM.

As to B4, the concentration giving a half-maximal response (EC50) turned out to be 0.323 nM.

The values above are taken from patent publication US20240190956A1 (published 2024).
